Source: US20160193316A1 (priority 1994, published 2016)

Key:
HLA-A*1101 = HLA-A*1101 (Homo sapiens, UniProt P04439, A114D/D185E/E176A/F33Y/L180Q/S129P/T187R); assay: HLA class I peptide binding assay; conditions: Table XVII
DRB4*0101 (DRw53) = target: T1, DRB4*0101 (DRw53) (Homo sapiens, UniProt P01903+P13762, G164S); assay: HLA class II peptide binding assay (pH 5.0); conditions: for DRw53 binding data: Table XIXb; for DRw53 binding information: DR3a motif peptides, unit not given, exemplary 15-mer containing the core sequence
T1 construct: expressed in transfected cells; host or cells: L257.6 (fibroblasts)

DRB1*1201 (DR5w12) = target: T2, DRB1*1201 (DR5w12) (Homo sapiens, UniProt P01903+P01911, A100R/A169T/D57E/D86V/F55L/H45Y/K41T/L162R/M171V/P40S/Q125H/Q178H/Q39Y/Q99D/R42G/S66L/T262R/V114A/V67L/W38E/Y59H/Y61H/Y89S); assay: HLA class II peptide binding assay; conditions: for DR5w12 binding data: Table XIXb; for DR5w12 binding information: unit not given
T2 construct: endogenous in cells; host or cells: Herluf

DRB1*0405 (DR4w15) = target: T3, DRB1*0405 (DR4w15) (Homo sapiens, UniProt P01903+P01911, A100R/A169T/D86S/F76Y/I96L/K127E/L162R/M171V/N62H/P40V/Q125Y/R42H/S133A/S149N/S66Y/V115G/V209L/W38E); assay: HLA class II peptide binding assay; conditions: for DR4w15 binding data: Table XIXb; for DR4w15 binding information: unit not given
T3 construct: endogenous in cells; host or cells: KT3

DRB1*0802 (DR8w2) = target: T4, DRB1*0802 (DR8w2) (Homo sapiens, UniProt P01903+P01911, A100R/A103L/A169T/F76Y/H45Y/I96F/K41T/L162R/M171V/P40S/Q125H/Q178H/Q39Y/Q99D/R218S/R42G/S66Y/V115G/W38E); assay: biochemical; assay type: binding
T4 construct: endogenous in cells; host or cells: OLL

DRB5*0101 (DR2w2β2) = target: T5, DRB5*0101 (DR2w2β2) (Homo sapiens, UniProt P01903+Q30154); assay type: binding
T5 construct: expressed in transfected cells; host or cells: L416.3 (fibroblasts) or GM3107

DRB1*0701 (DR7) = target: T6, DRB1*0701 (DR7) (Homo sapiens, UniProt P01903+P01911, A100R/A102G/A103Q/D57E/D86V/E43K/F76Y/K127E/L162R/M171V/P40G/Q125H/Q99D/R33Q/R42Y/R54Q/S133A/S66F/T210M/V115G/Y107V/Y59L/Y89S); assay: biochemical; assay type: binding
T6 construct: endogenous in cells; host or cells: Pitout

DRB1*0101 (DR1) = target: T7, DRB1*0101 (DR1) (Homo sapiens, UniProt P01903+P01911, A100R/D57E/F55L/F60I/F76Y/I96L/L162R/M171V/P40L/Q125E/R42F/V115G/Y59C); assay: HLA class II peptide binding assay; conditions: for DR1 binding data: Table XIXb, Malaria Super Motif Peptides With Binding Data; for DR1 binding information: unit not given
T7 construct: endogenous in cells; host or cells: LG2
T7 sequence (P01903 26-254 partner, other chains not shown): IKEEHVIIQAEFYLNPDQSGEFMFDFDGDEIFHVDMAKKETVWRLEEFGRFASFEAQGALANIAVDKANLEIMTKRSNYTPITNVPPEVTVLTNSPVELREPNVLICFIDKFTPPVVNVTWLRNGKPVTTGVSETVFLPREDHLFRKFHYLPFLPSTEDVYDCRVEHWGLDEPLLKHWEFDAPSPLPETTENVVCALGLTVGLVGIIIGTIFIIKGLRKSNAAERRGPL

DRB1*0401 (DR4w4) = target: T8, DRB1*0401 (DR4w4) (Homo sapiens, UniProt P01903+P01911, A100K/A169T/F76Y/I96L/K127E/L162R/M171V/N62H/P40V/Q125Y/R42H/S133A/S149N/S66Y/V115G/V209L/W38E); assay: HLA class II peptide binding assay; conditions: for DR4w4 binding data: Table XIXb; for DR4w4 binding information: unit not given
T8 construct: endogenous in cells; host or cells: Preiss
T8 sequence (P01903 26-254 partner, other chains not shown): as above

DRB1*1101 (DR5w11) = target: T9, DRB1*1101 (DR5w11) (Homo sapiens, UniProt P01903+P01911, A100R/A169T/A87E/I96F/K41T/L162R/M171V/P40S/Q125H/Q178H/Q39Y/Q99D/R42S/S66Y/T262R/V115G/W38E); assay: biochemical; assay type: binding
T9 construct: endogenous in cells; host or cells: Sweig
T9 sequence (P01903 26-254, other chains not shown): as the sequence (P01903 26-254 partner, other chains not shown) above

HLA-A*0301 = target: T10, HLA-A*0301 (Homo sapiens, UniProt P04439); assay: HLA class I peptide binding assay; conditions: for A*0301 (binding information): Table XVI, Malaria A3 motif peptides; for A*301 (binding data): Malaria A03 supermotif peptides
T10 construct: endogenous in cells; host or cells: GM3107

DRB1*0301 (DR3) = target: T11, DRB1*0301 (DR3) (Homo sapiens, UniProt P01903+P01911, A100K/A102G/A103R/A169T/F55Y/I96L/K41T/L162R/M171V/P40S/Q125H/Q178H/Q39Y/R42S/S66N/T106N/T262R/W38E/Y61H); assay: HLA class II peptide binding assay (pH 4.5); conditions: unit not given
T11 construct: endogenous in cells; host or cells: MAT

[1] = Malaria A11 motif peptides, HLA-A*1101 binding value, unit not given
[2] = malaria A11 motif peptides, binding value unit not given
[3] = DR3a motif peptides, exemplary 15-mer containing the core sequence
[4] = Malaria A11 motif peptides, binding value for HLA-A*1101, unit not given
[5] = binding value to HLA-A*0301, unit not given

## GLVLYNIEK
HLA-A*1101; [1]
  A*1101 binding information: 0.0055

## WDEWSPCSV
DRB4*0101 (DRw53)
  DRw53 binding data: -0.0006
DRB1*1201 (DR5w12)
  DR5w12 binding data: 0.0001
DRB1*0405 (DR4w15)
  DR4w15 binding data: -0.0014
DRB1*0802 (DR8w2)
  DR8w2 binding data: -0.0003
DRB5*0101 (DR2w2β2)
  DR2w2β2 binding data: -0.0006
DRB1*0701 (DR7)
  DR7 binding data: -0.0003
DRB1*0101 (DR1)
  DR1 binding data: 0.0001
DRB1*0401 (DR4w4)
  DR4w4 binding data: -0.0007
DRB1*1101 (DR5w11)
  DR5w11 binding data: -0.0002

## LTDGIPDSI
DRB4*0101 (DRw53)
  DRw53 binding data: 0.0114
DRB1*1201 (DR5w12)
  DR5w12 binding data: 0.0001
DRB1*0405 (DR4w15)
  DR4w15 binding data: -0.0014
DRB1*0802 (DR8w2)
  DR8w2 binding data: -0.0003
DRB5*0101 (DR2w2β2)
  DR2w2β2 binding data: -0.0006
DRB1*0701 (DR7)
  DR7 binding data: -0.0003
DRB1*0101 (DR1)
  DR1 binding data: 0.0001
DRB1*0401 (DR4w4)
  DR4w4 binding data: 0.1200
DRB1*1101 (DR5w11)
  DR5w11 binding data: -0.0004

## LGGVGLVLY
DRB1*1201 (DR5w12)
  DR5w12 binding data: 0.0004
DRB1*0405 (DR4w15)
  DR4w15 binding data: -0.0009
HLA-A*0301; binding value for HLA-A*0301, unit not given
  A*0301 (binding information): 0.0001
DRB1*0802 (DR8w2)
  DR8w2 binding data: -0.0002
DRB5*0101 (DR2w2β2)
  DR2w2β2 binding data: -0.005
DRB1*0701 (DR7)
  DR7 binding data: 0.0007
DRB1*0101 (DR1)
  DR1 binding data: 0.4900
HLA-A*1101; [1]
  A*1101 binding information: 0.0002
DRB1*0401 (DR4w4)
  DR4w4 binding data: 0.0032
DRB1*1101 (DR5w11)
  DR5w11 binding data: -0.0062

## VNDFQISKY
DRB4*0101 (DRw53)
  DRw53 binding data: -0.0005
DRB1*1201 (DR5w12)
  DR5w12 binding data: 0.0001
DRB1*0405 (DR4w15)
  DR4w15 binding data: -0.0014
DRB1*0802 (DR8w2)
  DR8w2 binding data: -0.0003
DRB5*0101 (DR2w2β2)
  DR2w2β2 binding data: -0.0005
DRB1*0701 (DR7)
  DR7 binding data: -0.0003
DRB1*0101 (DR1)
  DR1 binding data: 0.0001
DRB1*0401 (DR4w4)
  DR4w4 binding data: -0.0007
DRB1*1101 (DR5w11)
  DR5w11 binding data: -0.0002

## HORNNENRSY
HLA-A*1101; [2]
  A*1101 binding information: 0.0002

## IVDELSEDI
DRB4*0101 (DRw53)
  DRw53 binding information: 0.0290
DRB1*1201 (DR5w12); [3]
  DR5w12 binding information: 0.0001
DRB1*0301 (DR3); [3]
  DR3 binding information: -0.0041
DRB1*0405 (DR4w15); [3]
  DR4w15 binding information: 0.0017
DRB1*0802 (DR8w2)
  DR8w2 binding information: -0.0003
DRB5*0101 (DR2w2β2)
  DR2w2β2 binding information: -0.0005
DRB1*0701 (DR7)
  DR7 binding information: -0.0003
DRB1*0101 (DR1); [3]
  DR1 binding information: 0.0001
DRB1*0401 (DR4w4); [3]
  DR4w4 binding information: 0.0027
DRB1*1101 (DR5w11)
  DR5w11 binding information: -0.0002

## VLYNTEXGRH
HLA-A*1101; [1]
  A*1101 binding information: 0.0002

## ESITINVEGR
HLA-A*1101; [4]
  A*1101 binding information: 0.0002

## YGRLEIPAI
DRB4*0101 (DRw53)
  DRw53 binding data: -0.0005
DRB1*1201 (DR5w12)
  DR5w12 binding data: 0.0002
DRB1*0405 (DR4w15)
  DR4w15 binding data: 0.0170
DRB1*0802 (DR8w2)
  DR8w2 binding data: 0.0021
DRB5*0101 (DR2w2β2)
  DR2w2β2 binding data: -0.0005
DRB1*0701 (DR7)
  DR7 binding data: -0.0003
DRB1*0101 (DR1)
  DR1 binding data: 0.0004
DRB1*0401 (DR4w4)
  DR4w4 binding data: -0.0007
DRB1*1101 (DR5w11)
  DR5w11 binding data: -0.0002

## LSTNLPYGR
HLA-A*0301; [5]
  A*0301 (binding information): 0.0004
HLA-A*0301; Table IX
  A*301 (binding data): 0.0004
DRB1*0701 (DR7)
  DR7 binding data: 0.0005
DRB1*0101 (DR1)
  DR1 binding data: 0.0012
HLA-A*1101; [2]
  A*1101 binding information: 0.0100
DRB1*0401 (DR4w4)
  DR4w4 binding data: 0.0120

## CSVTCGKGTR
HLA-A*0301; [5]
  A*0301 (binding information): 0.0002
HLA-A*0301; binding value, no unit given
  A*301 (binding data): 0.0002
HLA-A*1101; [2]
  A*1101 binding information: 0.0002

## INRENANQL
DRB4*0101 (DRw53)
  DRw53 binding information: 0.0096
DRB1*1201 (DR5w12); [3]
  DR5w12 binding information: 0.0001
DRB1*0301 (DR3); [3]
  DR3 binding information: 0.0092
DRB1*0405 (DR4w15); [3]
  DR4w15 binding information: 0.0010
DRB1*0802 (DR8w2)
  DR8w2 binding information: -0.0003
DRB5*0101 (DR2w2β2)
  DR2w2β2 binding information: 0.0015
DRB1*0701 (DR7)
  DR7 binding information: -0.0003
DRB1*0101 (DR1); [3]
  DR1 binding information: 0.0770
DRB1*0401 (DR4w4); [3]
  DR4w4 binding information: 0.0011
DRB1*1101 (DR5w11)
  DR5w11 binding information: -0.0004

## IFLKENIQNK
HLA-A*1101; [4]
  A*1101 binding information: 0.0002

## LNKEGKLIE
DRB1*1201 (DR5w12); Malaria DR3b motif peptides
  DR5w12 binding information: -0.0003
DRB1*0301 (DR3); Malaria DR3b motif peptides
  DR3 binding information: -0.0140
DRB1*0405 (DR4w15); Malaria DR3b motif peptides
  DR4w15 binding information: -0.0047
DRB1*0802 (DR8w2)
  DR8w2 binding information: -0.0007
DRB5*0101 (DR2w2β2)
  DR2w2β2 binding information: -0.0021
DRB1*0701 (DR7)
  DR7 binding information: -0.0009
DRB1*0101 (DR1); Malaria DR3b motif peptides
  DR1 binding information: 0.0001
DRB1*0401 (DR4w4); Malaria DR3b motif peptides
  DR4w4 binding information: -0.0017
DRB1*1101 (DR5w11)
  DR5w11 binding information: -0.0005

## SLYDEHRKY
HLA-A*1101; [2]
  A*1101 binding information: 0.0045

## KGKKYEKIK
HLA-A*0301; HLA-A*0301 binding value, unit not given
  A*0301 (binding information): 0.0002
HLA-A*1101; [4]
  A*1101 binding information: 0.0002

## DGNNEDNEX
HLA-A*1101; [1]
  A*1101 binding information: 0.0002

## EDMCYFMK
HLA-A*1101; [4]
  A*1101 binding information: 0.0003
